The test addresses linear di-Ub (M1-linear from UbiQ) (UniProt P0CG47). The experiment in a line: SPR.

B1: His-tagged Ufd2p (enzyme)
chain: MTAIEDILQITTDPSDTRGYSLLKSEEVPQGSTLGVDFIDTLLLYQLTENEKLDKPFEYLNDCFRRNQQQKRITKNKPNAESLHSTFQEIDRLVIGYGVVALQIENFCMNGAFINYITGIVSNVNSYTDFLSQIIQRAILEGTALDLLNAVFPTLLEYCNKHVSHFDLNESVIYNNVLTIFELFVTFKPIAEIFTKIDGFFADYSCKPQDFERKTILGPILSLSPIEAAVAIRNYGDNLLRSKQQTAMIHESLQAEHKVVIDRLFFIVDKLVRGSLNSRTDMISYFAHIANKNHLRRADHPPFKELSSNGFMSNITLLLVRFSQPFLDISYKKIDKIDANYFNNPSLFIDLSGETRLNSDFKEADAFYDKNRKTADSKPNFISDCFFLTLTYLHYGLGGTLSFEEKMGSEIKALKEEIEKVKKIAANHDVFARFITAQLSKMEKALKTTESLRFALQGFFAHRSLQLEVFDFICGASTFLIRVVDPEHEFPFKQIKLPLIPDQIGVENVDNADFLRAHAPVPFKYYPEFVVEGPVNYSLYISKYQTSPIFRNPRLGSFVEFTTMVLRCPELVSNPHLKGKLVQLLSVGAMPLTDNSPGFMMDIFEHDELVNKNLLYALLDFYVIVEKTGSSSQFYDKFNSRYSISIILEELYYKIPSYKNQLIWQSQNNADFFVRFVARMLNDLTFLLDEGLSNLAEVHNIQNELDNRARGAPPTREEEDKELQTRLASASRQAKSSCGLADKSMKLFEIYSKDIPAAFVTPEIVYRLASMLNYNLESLVGPKCGELKVKDPQSYSFNPKDLLKALTTVYINLSEQSEFISAVAKDERSFNRNLFVRAVDILGRKTGLASPEFIEKLLNFANKAEEQRKADEEEDLEYGDVPDEFLDPLMYTIMKDPVILPASKMNIDRSTIKAHLLSDSTDPFNRMPLKLEDVTPNEELRQKILCFKKQKKEEAKHKASE
Consider B1, for which the binding result was “binds”.
